Assays:
[1] = system: IL-12p70 production by DCs; experiment: IL-12p70 production by poly(I:C)-matured DCs (CBA); format: cell-based, human
Experimental: (§1) Immature DCs were incubated with MMP-2 (0.5 μg/mL or 5 μg/mL) and poly(I:C)-matured 1 h later. IL-12 levels were measured 16 h later. (A) Results are represented as a percentage of IL-12p70 levels, measured by CBA, produced when DCs were incubated with poly(I:C) only (n=11). (B) For intracellular staining of IL-12p35 and IL-12p40 chains, Brefeldin A was added 4 h after poly(I:C) activation and cells were stained after an additional 12 h incubation. Numbers in the upper right quadrants are the percentages of each population for a representative donor (n=3). (C,D) Immature DCs were incubated with MMP-2 for 1 h (5 μg/mL) before poly(I:C) maturation. Intracellular staining of phosphorylated (Y701) STAT1 (P-STAT1) was performed 3 h later. A representative donor (C) and results for all 3 donors (D) are shown. […] (E) Immature DCs were incubated with MMP-2 and poly(I:C)-matured 1 h later. IFNβ levels were measured by ELISA 16 h later. Results are represented as a percentage of IFNβ levels produced when DCs were incubated with poly(I:C) only (n=9). (F,G) 10^6DCs/lane were treated with 0.1 μg MMP-2 or controls. Poly(I:C) was added 1 h later. IFNAR1 protein expression was detected the next day by Western blot analysis using a rabbit monoclonal antibody. A representative donor (F) and results for all 7 donors (G) are shown. (H) The rhIFNAR1 (5 μg; ≈110 kD) was incubated overnight with 0.3 μg MMP-2 before performing Western blot analysis for IFNAR1. The second band (around 90 kD) and the third band (25 kD) very likely correspond to either a degraded form of the protein still recognized by the antibody or a contaminant present in the commercial protein preparation and non-specifically recognized by the antibody. MMP-2 enzymatic activity was controlled (FIG. 13C-D). […]
Dendritic cell preparation and activation. […] Immature DCs were harvested on day 5 and matured using poly(I:C) at 5 μg/mL/10^6 DCs (Amersham) Secretion of IL-12p70, TNFα, IL-1β, IL-6, IL-8 and IL-10 was assessed on both immature and mature DCs using the Human Inflammatory Cytokine Cytometric Bead Array (BD Pharmingen).

[2] = system: human basophils; experiment: Basophil activation by MMP-2 (IL-4, TSLP, CD203c); format: cell-based
[3] = system: rhIFNAR1; experiment: Overnight incubation of rhIFNAR1 with MMP-2 (Western blot); format: biochemical, human; details: incubated overnight
Experimental: as §1, with “antibody.” for “antibody. A representative donor (F) and results for all 7 donors (G) are shown. (H) The rhIFNAR1 (5 μg; ≈110 kD) was incubated overnight with 0.3 μg MMP-2 before performing Western blot analysis for IFNAR1. The second band (around 90 kD) and the third band (25 kD) very likely correspond to either a degraded form of the protein still recognized by the antibody or a contaminant present in the commercial protein preparation and non-specifically recognized by the antibody. MMP-2 enzymatic activity was controlled (FIG. 13C-D).”
Western blots IFNAR1 and β-actin were detected by Western blot analysis using rabbit and mouse mAbs, respectively. […]

[4] = system: phosphorylated (Y701) STAT1; experiment: Intracellular staining of phosphorylated (Y701) STAT1 in DCs; format: cell-based, human; details: DCs preincubated 1 h (5 μg/mL) prior to poly(I:C), 3 h
Experimental: as §1, with “(F,G) 10^6DCs/lane were treated with 0.1 μg MMP-2 or controls. Poly(I:C) was added 1 h later.” left out, “antibody.” for “antibody. A representative donor (F) and results for all 7 donors (G) are shown. (H) The rhIFNAR1 (5 μg; ≈110 kD) was incubated overnight with 0.3 μg MMP-2 before performing Western blot analysis for IFNAR1. The second band (around 90 kD) and the third band (25 kD) very likely correspond to either a degraded form of the protein still recognized by the antibody or a contaminant present in the commercial protein preparation and non-specifically recognized by the antibody. MMP-2 enzymatic activity was controlled (FIG. 13C-D).”
Intracellular staining T-bet and GATA-3 expression was measured on resting T cells. […] Cytokine production by T cells was also assessed by intracellular staining T cells were stimulated with 2 μM overlapping peptides. […]

B1: active MMP-2: Purified human MMP-2 (mixture of the proenzyme (50%) and the active form (50%)) purchased from Biomol (protein, listed as Homo sapiens)
chain: MEALMARGALTGPLRALCLLGCLLSHAAAAPSPIIKFPGDVAPKTDKELAVQYLNTFYGCPKESCNLFVLKDTLKKMQKFFGLPQTGDLDQNTIETMRKPRCGNPDVANYNFFPRKPKWDKNQITYRIIGYTPDLDPETVDDAFARAFQVWSDVTPLRFSRIHDGEADIMINFGRWEHGDGYPFDGKDGLLAHAFAPGTGVGGDSHFDDDELWTLGEGQVVRVKYGNADGEYCKFPFLFNGKEYNSCTDTGRSDGFLWCSTTYNFEKDGKYGFCPHEALFTMGGNAEGQPCKFPFRFQGTSYDSCTTEGRTDGYRWCGTTEDYDRDKKYGFCPETAMSTVGGNSEGAPCVFPFTFLGNKYESCTSAGRSDGKMWCATTANYDDDRKWGFCPDQGYSLFLVAAHEFGHAMGLEHSQDPGALMAPIYTYTKNFRLSQDDIKGIQELYGASPDIDLGTGPTPTLGPVTPEICKQDIVFDGIAQIRGEIFFFKDRFIWRTVTPRDKPMGPLLVATFWPELPEKIDAVYEAPQEEKAVFFAGNEYWIYSASTLERGYPKPLTSLGLPPDVQRVDAAFNWSKNKKTYIFAGDKFWRYNEVKKKMDPGFPKLIADAWNAIPDNLDAVVDLQGGGHSYFFKGAYYLKLENQSLKSVKFGSIKSDWLGC
[1]; 5 μg/mL MMP-2, n=11 donors
  IL-12p70, mean of differences: 41.7
[1]; 5 μg/mL MMP-2, poly(I:C) stimulation, n=11 donors
  IL-12p70 mean inhibition: 47.8%
[2]; MMP-2 0.5 and 5 μg/mL
  production of IL-4 by basophils: neither induced
[2]; MMP-2 0.5 and 5 μg/mL, 16 h
  production of TSLP by basophils: neither induced
[2]; PBMCs, 6 h
  expression of basophil activation marker CD203c: did not increase
[3]
  degradation of rhIFNAR1 (≈110 kD): degraded
[4]
  STAT1 phosphorylation: decreased
